# From patent publication US9249224B2 (RINAT NEUROSCIENCE CORP., priority 2011, dated 2016)
# T1: human GHR (Homo sapiens, UniProt P10912)
# T1 construct: his-tagged monomers of amino acids 31-235 of the extracellular domain of the human or cyno GHR
# T1 sequence (P10912 49-253): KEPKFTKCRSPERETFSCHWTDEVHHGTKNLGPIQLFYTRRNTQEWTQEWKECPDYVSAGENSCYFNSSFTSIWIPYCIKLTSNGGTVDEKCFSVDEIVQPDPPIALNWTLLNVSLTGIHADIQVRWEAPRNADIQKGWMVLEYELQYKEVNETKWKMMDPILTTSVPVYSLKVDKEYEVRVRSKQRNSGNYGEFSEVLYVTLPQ
# How the values were obtained:
# [1] = target: T1, human GHR; assay: Biacore kinetics and affinity, immobilized Fab, human GHR analyte, 37° C.; format: binding; conditions: Fab captured on anti-human kappa surface
# Procedure: (§1) The affinity of GHR antibody SS1 Fab to human and cyno GHR was measured on a Biacore™ T200 biosensor (GE Lifesciences™, Piscataway N.J.).
# (§2) An anti-human kappa sensor chip was prepared by activating all flow cells of a Biacore™ CM4 sensor chip with a 1:1 (v/v) mixture of 400 mM EDC and 100 mM NHS for 7 minutes, at a flow rate of 10 μL/min. An anti-human kappa reagent (goat F(ab′)2 fragment anti-human kappa, Southern Biotech Catalog #2063-01) was diluted to 50 μg/mL in 10 mM sodium acetate pH 4.5 and injected on all flow cells for 7 minutes at 20 μL/min. All flow cells were blocked with 100 mM ethylenediamine in 150 mM borate buffer pH 8.5 for 7 minutes at 10 μL/min.
# (§3) The kinetics assay was run using a methodology with varying dissociation times as described in Katsamba et al., supra. Fabs were captured onto downstream flow cells (flow cells 2, 3 and 4) at 2 μg/mL at a flow rate of 10 μL/min for 2 minutes. Different Fabs were captured on each flow cell. Flow cell 1 was used as a reference surface. […] After the analyte injection, dissociation was monitored for 30 minutes (for the 133 nM and 400 nM GHR cycles) or 60 seconds (all other cycles) followed by regeneration with three 30-second injections of 10 mM glycine pH 1.7. A 6-membered dilution series of GHR was analyzed using this method, where the top concentration was 400 nM and the dilution factor was 3-fold. […]
# [2] = system: cyno GHR; assay: Biacore kinetics and affinity, immobilized Fab, cyno GHR analyte, 37° C.; format: binding, cynomolgus monkey; conditions: Fab captured on anti-human kappa surface
# Chain of cyno GHR (as listed by the source): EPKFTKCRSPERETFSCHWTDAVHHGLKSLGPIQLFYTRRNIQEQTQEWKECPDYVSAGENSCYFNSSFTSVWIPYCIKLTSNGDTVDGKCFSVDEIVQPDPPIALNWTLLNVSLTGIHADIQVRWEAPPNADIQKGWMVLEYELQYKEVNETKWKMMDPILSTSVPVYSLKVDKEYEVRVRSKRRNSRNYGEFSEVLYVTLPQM
# Procedure: as §1, §2, §3
# [3] = target: T2, hGHR-hFc (Homo sapiens, UniProt P10912); assay: Biacore kinetics and affinity, immobilized hGHR-hFc, Fab analyte, 37° C.; format: binding; conditions: hGHR-hFc captured on anti-human Fc surface
# T2 construct: purchased R&D Systems 1210-GR
# T2 sequence (P10912 with tags, fused parts or gaps limits assumed): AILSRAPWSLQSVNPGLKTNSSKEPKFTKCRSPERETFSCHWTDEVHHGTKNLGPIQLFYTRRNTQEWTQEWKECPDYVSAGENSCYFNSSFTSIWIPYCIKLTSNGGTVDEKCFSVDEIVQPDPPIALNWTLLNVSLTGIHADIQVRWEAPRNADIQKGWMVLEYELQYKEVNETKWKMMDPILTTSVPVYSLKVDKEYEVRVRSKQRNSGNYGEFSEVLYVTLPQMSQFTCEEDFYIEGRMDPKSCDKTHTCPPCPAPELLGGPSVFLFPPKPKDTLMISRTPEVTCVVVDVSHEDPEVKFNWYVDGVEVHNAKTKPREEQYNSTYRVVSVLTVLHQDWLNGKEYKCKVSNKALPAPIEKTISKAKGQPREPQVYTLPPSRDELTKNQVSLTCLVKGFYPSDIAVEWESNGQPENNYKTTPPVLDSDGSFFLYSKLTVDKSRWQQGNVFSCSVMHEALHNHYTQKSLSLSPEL
# Procedure: as §1
# as §2, with “anti-human Fc” for “anti-human kappa”, “fragment to human IgG Fc, Cappel” for “fragment anti-human kappa, Southern Biotech”, “Catalog #55053)” for “Catalog #2063-01)”, “to 60” for “to 50”, “pH 5.0” for “pH 4.5”
# The kinetics assay was run using a methodology with varying dissociation times as described in Katsamba et al., supra. The hGHR-hFc fusion protein (R&D Systems™ Catalog#1210-GR) was captured onto downstream flow cells at 2 μg/mL at a flow rate of 10 μL/min for 30 seconds, 1 minute and 2 minutes on flow cells 2, 3 and 4, respectively. Flow cell 1 was used as a reference surface. […] After the analyte injection, dissociation was monitored for 30 minutes (400 nM Fab cycle) or 60 seconds (all other cycles) followed by regeneration with two 30-second injections of 75 mM phosphoric acid. A 5-membered dilution series of Fab was analyzed using this method, where the top concentration was 400 nM and the dilution factor was 3-fold. […]
molecule,measurement,setting,value
"SS1 Fab: Fab of GHR antibody SS1 (antibody, V domains shown) VH: EVQLVESGGGLVKPGGSLRLSCAASGFTFSDAWMDWVRQAPGKGLEWVAEIRSKANYHATYYAESVKGRFTISRDDSKNTLYLQMNSLKTEDTAVYYCTLIRDYWGQGTLVTVSS VL: EIVLTQSPGTLSLSPGERATLSCTATSSVSSSYLNWYQQKPGQAPRLLIYSTSNLASGIPDRFSGSGSGTDFTLTISRLEPEDFAVYYCHQYHRSTPTFGGGTKVEIK",ka,[1],138000 M⁻¹ s⁻¹
same,kd,[1],0.000215 s⁻¹
same,ka,[2],182000 M⁻¹ s⁻¹
same,kd,[2],0.000576 s⁻¹
same,ka,[3],374000 M⁻¹ s⁻¹
same,kd,[3],0.000359 s⁻¹
